The values that follow come from patent publication US20230389573A1.

Test [1] concerns the target SOP2 gelatine extracted from blue whiting skin and bone.
Test [2] deals with SOP1 gelatine extracted from blue whiting skin and bone.
Test [3] has as its target Angiotensin-converting enzyme-I (ACE-1).
Test [4] shares this target. This is another data set of the same source.

As for “Alcalase (EC number 3.4.21.62) (from UniProt P00780) (enzyme)”, the degree of hydrolysis (DH) after 4 h, pH-stat method came to 2.54% in test [1] and 1.87% in test [2]. As to “Blue whiting 3 KDa permeate (blood water fraction) (pool or library)”, the % Renin inhibition at 1 mg/mL in the test with Renin was 10.6%. Besides, the % ACE-I inhibition at 1 mg/mL in test [3] was 28.9%. With “Blue whiting 10 KDa permeate (blood water fraction) (pool or library)”, the % ACE-I inhibition at 1 mg/mL in test [3] was found to be 33.1%. As to “Blue whiting retentate (blood water fraction) (pool or library)”, in test [3], the % ACE-I inhibition at 1 mg/mL came to 59.4%. “Mackerel 3 KDa permeate (blood water fraction) (pool or library)”: in the test with Renin, the % Renin inhibition at 1 mg/mL is 21%. The % ACE-I inhibition at 1 mg/mL in test [3] turned out to be 83.9%. With “Mackerel 10 KDa permeate (blood water fraction) (pool or library)”, in test [3], the % ACE-I inhibition at 1 mg/mL was 96.9%. The same measure, in the same setting: the same measure for “Mackerel retentate (blood water fraction) (pool or library)”: 95.4%. Turning to “Papain (EC number 3.4.22.2) (from UniProt P00784) (enzyme)”, the degree of hydrolysis (DH) after 4 h, pH-stat method in test [1] was found to be 19.4%; in test [2], 20.4%. Regarding “SOP1 gelatine alcalase hydrolysate (blue whiting skin and bone) (pool or library)”, the % ACE-1 inhibition at 1 mg/ml in test [4] is 26.8%. The same measure, in the same setting: the same measure for “SOP1 gelatine papain hydrolysate (blue whiting skin and bone) (pool or library)”: 73.1%; for “SOP2 gelatine alcalase hydrolysate (blue whiting skin and bone) (pool or library)”: 25.1%; for “SOP2 gelatine papain hydrolysate (blue whiting skin and bone) (pool or library)”: 71.1%. As for “≤3 KDa peptide fraction of the SOP1 gelatine alcalase hydrolysate (pool or library)”, the % ACE-1 inhibition at 1 mg/ml in test [4] was determined as 84.2%. Take “≤3 KDa peptide fraction of the SOP1 gelatine papain hydrolysate (pool or library)”: in test [4], the % ACE-1 inhibition at 1 mg/ml stood at 80.5%. Still for that read-out and setting: the same measure for “≤3 KDa peptide fraction of the SOP2 gelatine alcalase hydrolysate (pool or library)”: 87.1%; for “≤3 KDa peptide fraction of the SOP2 gelatine papain hydrolysate (pool or library)”: 84.5%.
